The source of these data is publication PMC11765575 (International Journal of Molecular Sciences, 2025).

This test concerns the target T1, osteocalcin C-terminal 7-residue peptide BGP-C7 (human).
T1 construct: C-terminal 7 residues of human osteocalcin (bone Gla protein, BGP), printed as NH2-RRFYGPV-COOH; Free N- and C-termini as printed (NH2-RRFYGPV-COOH); also called antigen peptide; osteocalcin C-terminal peptide
T1 chain: RRFYGPV
Briefly: crystal structure; KTM219 Fab with three molar excess BGP-C7, complex purified by gel filtration; crystallised at 20 °C, sitting drop, 0.07 M citric acid, 0.03 M Bis-tris propane (pH 3.4), 16% w/v PEG 3350, microseeding; refined to 2.30 Å. As to conditions: both partners purified. In general terms: In gel filtration, larger molecules generally elute earlier.

B1: Fab fragment of anti-osteocalcin C-terminal peptide antibody KTM219 (Fab, V domains shown)
VH: QVKLQQSGAEFVKAGASVKLSCKTSGYTFNNYWIHWVKQSPGQGLEWIGEIDPSDGYSNYNQKFKGKATLTVDKSSSTAYMHLNSLTSEDSAVYYCTSSTSVGGSWGQGTTVTVSS
VL: DIELTQSPLSLPVSLGDQASISCTSSQSLLHSNGDTYLHWYLQKPGQSPKLLIYTLSNRFSGVPDRFSGSGSGTDFTLKISRVEAADLGIYFCSQTTHVPYTFGGGTKLEIK
notes: heavy chain (VH-CH1) of KTM219 Fab; light chain (VL-CL) of KTM219 Fab; also called KTM219 Fab
Turning to B1, the binding result is “binds”.
